Data reported in PMC12153317 (mBio, 2025).

Target: HA head of A/American black duck/New Brunswick/00464/2010(H4N6) (Influenza A virus A/American black …, strain)
Test: crystal structure
Details: both partners purified

B1: S8V1-157 Fab (crystallization) (Fab, V domains shown)
VH: EVQLVQSGAEVKKPGASVKVSCKVSGYRLTALSMHWVRQAPGKGLEWMGGFDPEEDETIYAQNFQGRVTLTEDTSTDTVYMELSSLRSEDTGVYYCATLMGANPFDYWGQGTLIIVSG
VL: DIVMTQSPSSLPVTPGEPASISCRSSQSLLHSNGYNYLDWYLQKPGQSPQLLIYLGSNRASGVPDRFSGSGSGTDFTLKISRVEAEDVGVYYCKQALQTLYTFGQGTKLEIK
notes: source: 293F, transient transfection, purified (TALON resin, Superdex 200)
binding result: binds
